# Source: patent publication US20250215101A1, “DR5 Agonist and PLK1 Inhibitor or CDK Inhibitor Combination Therapy” (Inhibrx Biosciences, Inc., priority 2022, published 2025)
# What was measured:
# Test in all cases: Cytotoxicity assay, colorectal cancer cell line panel, onvansertib +/- 1 nM INBRX-109
# Assay type in all cases: cell-based
# [1] = tested on: T84; conditions: T84; 1 nM INBRX-109 only
# Experimental: (§1) Monolayer cultures of each cell line were harvested for compound screening as detailed below.
# (§2) Also on day 2, test and control articles were added.
# (§3) On day 4, viability measurements were taken. […] Data was graphed in GraphPad Prism 9.
# (§4) The results for a panel of colorectal cancer cell lines are shown in Table 3 and FIGS. 4-6, and the results for a panel of pancreatic cell lines are shown in Table 4 and FIGS. 7 and 8.
# [2] = tested on: HT-29; conditions: HT-29; 1 nM INBRX-109 only
# Experimental: as §1, §2, §3, §4
# [3] = tested on: HCT 116; conditions: HCT 116; 1 nM INBRX-109 only
# Experimental: as §1, §2, §3, §4
# [4] = tested on: SW-1463; conditions: SW-1463; 1 nM INBRX-109 only
# Experimental: as §1, §2, §3, §4
# [5] = tested on: COLO320DM; conditions: 1 nM INBRX-109 only
# Experimental: as §1, §2, §3, §4
# [6] = tested on: SNU-C5; conditions: 1 nM INBRX-109 only
# Experimental: as §1, §2, §3, §4
# [7] = tested on: LS174T; conditions: 1 nM INBRX-109 only
# Experimental: as §1, §2, §3, §4
# [8] = tested on: LS 123; conditions: LS 123; 1 nM INBRX-109 only
# Experimental: as §1, §2, §3, §4
# [9] = tested on: SW-837; conditions: SW-837; 1 nM INBRX-109 only
# Experimental: as §1, §2, §3, §4
# [10] = tested on: Hutu 80; conditions: Hutu 80; 1 nM INBRX-109 only
# Experimental: as §1, §2, §3, §4
# [11] = tested on: LoVo; conditions: 1 nM INBRX-109 only
# Experimental: as §1, §2, §3, §4
# [12] = tested on: SNU-C2A; conditions: 1 nM INBRX-109 only
# Experimental: as §1, §2, §3, §4
# [13] = tested on: NCI-H747; conditions: NCI-H747; 1 nM INBRX-109 only
# Experimental: as §1, §2, §3, §4
# [14] = tested on: SW-480; conditions: SW-480; 1 nM INBRX-109 only
# Experimental: as §1, §2, §3, §4
# [15] = tested on: SK-CO-1; conditions: SK-CO-1; 1 nM INBRX-109 only
# Experimental: as §1, §2, §3, §4
# [16] = tested on: HCT-8; conditions: HCT-8; 1 nM INBRX-109 only
# Experimental: as §1, §2, §3, §4
# [17] = tested on: SW-48; conditions: SW-48; 1 nM INBRX-109 only
# Experimental: as §1, §2, §3, §4
# [18] = tested on: LS 180; conditions: LS 180; 1 nM INBRX-109 only
# Experimental: as §1, §2, §3, §4
# [19] = tested on: LS 1034; conditions: LS 1034; 1 nM INBRX-109 only
# Experimental: as §1, §2, §3, §4
# [20] = tested on: NCI-H716; conditions: NCI-H716; 1 nM INBRX-109 only
# Experimental: as §1, §2, §3, §4
# [21] = tested on: SNU-81; conditions: 1 nM INBRX-109 only
# Experimental: as §1, §2, §3, §4
# [22] = tested on: DLD-1; conditions: DLD-1; 1 nM INBRX-109 only
# Experimental: as §1, §2, §3, §4
# [23] = tested on: SW-1116; conditions: SW-1116; 1 nM INBRX-109 only
# Experimental: as §1, §2, §3, §4
# [24] = tested on: LS 513; conditions: LS 513; 1 nM INBRX-109 only
# Experimental: as §1, §2, §3, §4
# [25] = tested on: SW-403; conditions: SW-403; 1 nM INBRX-109 only
# Experimental: as §1, §2, §3, §4
# [26] = tested on: SW-948; conditions: SW-948; 1 nM INBRX-109 only
# Experimental: as §1, §2, §3, §4
# [27] = tested on: SW620; conditions: SW620; 1 nM INBRX-109 only
# Experimental: as §1, §2, §3, §4
# [28] = tested on: RKO; conditions: 1 nM INBRX-109 only
# Experimental: as §1, §2, §3, §4
# [29] = tested on: HT-55; conditions: HT-55; 1 nM INBRX-109 only
# Experimental: as §1, §2, §3, §4
# [30] = tested on: HCT-15; conditions: HCT-15; 1 nM INBRX-109 only
# Experimental: as §1, §2, §3, §4
molecule,measurement,setting,value
"INBRX-109: DR5-binding polypeptide consisting of SEQ ID NO: 7 (two VHH domains and an Fc region); DR5 agonist (protein, INBRX-109, DR5 agonist) EVQLLESGGGEVQPGGSLRLSCAASGLTFPNYGMGWFRQAPGKEREFVSAIYWSGGTVYYAESVKGRFTISRDNAKNTLYLQMSSLRAEDTAVYYCAVTIRGAATQTWKYDYWGQGTLVTVKPGGSGGSEVQLLESGGGEVQPGGSLRLSCAASGLTFPNYGMGWFRQAPGKEREFVSAIYWSGGTVYYAESVKGRFTISRDNAKNTLYLQMSSLRAEDTAVYYCAVTIRGAATQTWKYDYWGQGTLVTVKPGGGGDKTHTCPPCPAPGGPSVFLFPPKPKDTLMISRTPEVTCVVVDVSHEDPEVKFNWYVDGVEVHNAKTKPREEQYNSTYRVVSVLTVLHQDWLNGKEYKCKVSNKALPAPIEKTISKAKGQPREPQVYTLPPSRDELTKNQVSLTCLVKGFYPSDIAVEWESNGQPENNYKTTPPVLDSDGSFFLYSKLTVDKSRWQQGNVFSCSVMHEALHNHYTQKSLSLSPGK",Max Cytotox at 1 nM,[1],9.1%
same,Max Cytotox at 1 nM,[2],19.9%
same,Max Cytotox at 1 nM,[3],54.4%
same,Max Cytotox at 1 nM,[4],28.5%
same,Max Cytotox at 1 nM,[5],4.7%
same,Max Cytotox at 1 nM,[6],48.6%
same,Max Cytotox at 1 nM,[7],41.2%
same,Max Cytotox at 1 nM,[8],3.1%
same,Max Cytotox at 1 nM,[9],7.1%
same,Max Cytotox at 1 nM,[10],4.0%
same,Max Cytotox at 1 nM,[11],16.2%
same,Max Cytotox at 1 nM,[12],41.4%
same,Max Cytotox at 1 nM,[13],13.4%
same,Max Cytotox at 1 nM,[14],19.7%
same,Max Cytotox at 1 nM,[15],92.2%
same,Max Cytotox at 1 nM,[16],6.7%
same,Max Cytotox at 1 nM,[17],93.9%
same,Max Cytotox at 1 nM,[18],27.2%
same,Max Cytotox at 1 nM,[19],56.9%
same,Max Cytotox at 1 nM,[20],9.2%
same,Max Cytotox at 1 nM,[21],82.1%
same,Max Cytotox at 1 nM,[22],41.9%
same,Max Cytotox at 1 nM,[23],15.3%
same,Max Cytotox at 1 nM,[24],92.3%
same,Max Cytotox at 1 nM,[25],15.7%
same,Max Cytotox at 1 nM,[26],98.5%
same,Max Cytotox at 1 nM,[27],19.4%
same,Max Cytotox at 1 nM,[28],3.6%
same,Max Cytotox at 1 nM,[29],48.4%
same,Max Cytotox at 1 nM,[30],49.6%
